Data: publication PMC3735781 (Journal of the American Chemical Society, 2013)

Assays:
Experiment in all cases: HPLC steady-state kinetics, amide hydrolysis at lactyl moiety
[1] = tested on: CC(=O)N[C@H]1[C@@H]2OC[C@@H](O2)[C@@H](O)[C@@H]1O[C@H](C)C(=O)N[C@@H](C)C(=O)N[C@H](CCC(=O)N[C@@H](CCC[C@@H](N)C(=O)O)C(=O)N[C@H](C)C(=O)O)C(=O)O; format: biochemical, Pseudomonas aeruginosa; conditions: 25 °C (Figure 2 reaction)
AmpDh2 = biological target: T1, AmpDh2 (Pseudomonas aeruginosa, UniProt Q9HT86); format: biochemical; conditions: 100 μM ZnCl2
T1 sequence (Q9HT86 18-259): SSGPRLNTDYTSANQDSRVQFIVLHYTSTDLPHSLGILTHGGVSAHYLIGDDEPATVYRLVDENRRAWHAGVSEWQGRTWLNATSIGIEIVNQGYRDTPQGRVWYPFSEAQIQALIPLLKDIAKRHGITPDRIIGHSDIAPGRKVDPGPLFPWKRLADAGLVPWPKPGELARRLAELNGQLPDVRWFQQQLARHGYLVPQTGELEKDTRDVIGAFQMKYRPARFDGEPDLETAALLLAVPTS

AmpDh3 = biological target: T2, AmpDh3 (Pseudomonas aeruginosa, UniProt Q9I5D1); format: biochemical; conditions: 100 μM ZnCl2
T2 sequence (Q9I5D1 1-255): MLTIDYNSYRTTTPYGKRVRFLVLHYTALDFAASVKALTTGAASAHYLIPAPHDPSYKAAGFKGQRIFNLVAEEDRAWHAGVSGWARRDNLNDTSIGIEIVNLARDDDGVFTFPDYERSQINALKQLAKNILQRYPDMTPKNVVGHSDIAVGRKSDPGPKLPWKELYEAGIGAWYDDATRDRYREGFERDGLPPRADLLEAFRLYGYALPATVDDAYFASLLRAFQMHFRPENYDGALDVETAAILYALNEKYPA

[2] = substrate: CC(=O)N[C@H]1[C@@H]2OC[C@@H](O2)[C@@H](O)[C@@H]1O[C@H](C)C(=O)N[C@@H](C)C(=O)N[C@H](CCC(=O)N[C@@H](CCC[C@@H](N)C(=O)O)C(=O)N[C@H](C)C(=O)O)C(=O)O; format: biochemical, Pseudomonas aeruginosa; conditions: 100 μM ZnCl2

For AmpD (Pseudomonas aeruginosa PAO1), the Km [1] was 1200 ± 300 µM, the kcat [1] was 39.8 ± 3.1 s⁻¹ and the kcat/Km [1] was 33200 ± 7500 M⁻¹ s⁻¹.

For muramyl tetrapeptide 8 [compound 8], the Km (AmpDh2) was 1800 ± 300 µM and the Km (AmpDh3) was 1400 ± 200 µM.

B1: AmpDh3 (Pseudomonas aeruginosa PAO1) (protein)
chain: T2 sequence (Q9I5D1 1-255)
Work on B1 yielded a Km [2] of 4500 ± 600 µM, a kcat [2] of 70.6 ± 6.6 s⁻¹ and a kcat/Km [2] of 15700 ± 1900 M⁻¹ s⁻¹.
